Values belong to the binder of their own block, whether it stands above or below them.
Legend:
[1] = biological target: T1, human FAP expressed on cells (human, UniProt Q12884 1-760); assay: saturation binding of 99mTc-labelled VHH on human FAP-expressing GM05389 cells
T1 construct: also called human FAP cell surface protein; human FAP receptor
T1 sequence: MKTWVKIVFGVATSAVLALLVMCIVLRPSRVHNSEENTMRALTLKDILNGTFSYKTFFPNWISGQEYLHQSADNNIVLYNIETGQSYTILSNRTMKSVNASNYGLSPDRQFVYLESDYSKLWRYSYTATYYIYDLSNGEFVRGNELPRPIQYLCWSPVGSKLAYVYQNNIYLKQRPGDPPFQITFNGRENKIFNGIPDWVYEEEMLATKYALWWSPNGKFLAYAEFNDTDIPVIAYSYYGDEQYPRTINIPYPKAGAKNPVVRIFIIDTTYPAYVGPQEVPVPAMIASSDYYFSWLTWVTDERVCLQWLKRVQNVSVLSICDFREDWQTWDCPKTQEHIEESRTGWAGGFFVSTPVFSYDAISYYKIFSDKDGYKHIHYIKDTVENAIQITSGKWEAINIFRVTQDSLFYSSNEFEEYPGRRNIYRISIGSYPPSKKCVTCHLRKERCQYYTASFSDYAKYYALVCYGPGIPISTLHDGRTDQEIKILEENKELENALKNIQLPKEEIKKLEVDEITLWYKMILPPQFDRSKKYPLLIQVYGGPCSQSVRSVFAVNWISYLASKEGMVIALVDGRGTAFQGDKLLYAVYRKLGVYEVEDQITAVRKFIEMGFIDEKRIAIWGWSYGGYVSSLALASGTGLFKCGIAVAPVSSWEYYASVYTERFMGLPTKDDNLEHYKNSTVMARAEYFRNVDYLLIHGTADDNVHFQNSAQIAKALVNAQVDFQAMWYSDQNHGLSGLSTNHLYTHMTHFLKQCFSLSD
Description: (§1) Next, the different cell lines were incubated with serial dilutions with concentrations ranging from 0 to 300 nM of the different ^99mTc-labelled His₆-tagged VHHs. A 100-fold excess of the corresponding unlabeled VHH was added in parallel to saturate the human or murine FAP proteins on the cancer cell surface, to assess non-specific binding. The resulting EC50 values for each of the VHHs are depicted in Table 8. […] We confirmed that ^99mTc-labeled VHH B4 only binds murine FAP cell surface protein, while VHH B3 only binds human FAP cell surface molecules in vitro.

[2] = biological target: T2, murine FAP expressed on cells (murine, UniProt P97321 1-761); assay: saturation binding of 99mTc-labelled VHH on murine FAP-expressing HEK-293 cells
T2 construct: also called murine FAP cell surface protein
T2 sequence: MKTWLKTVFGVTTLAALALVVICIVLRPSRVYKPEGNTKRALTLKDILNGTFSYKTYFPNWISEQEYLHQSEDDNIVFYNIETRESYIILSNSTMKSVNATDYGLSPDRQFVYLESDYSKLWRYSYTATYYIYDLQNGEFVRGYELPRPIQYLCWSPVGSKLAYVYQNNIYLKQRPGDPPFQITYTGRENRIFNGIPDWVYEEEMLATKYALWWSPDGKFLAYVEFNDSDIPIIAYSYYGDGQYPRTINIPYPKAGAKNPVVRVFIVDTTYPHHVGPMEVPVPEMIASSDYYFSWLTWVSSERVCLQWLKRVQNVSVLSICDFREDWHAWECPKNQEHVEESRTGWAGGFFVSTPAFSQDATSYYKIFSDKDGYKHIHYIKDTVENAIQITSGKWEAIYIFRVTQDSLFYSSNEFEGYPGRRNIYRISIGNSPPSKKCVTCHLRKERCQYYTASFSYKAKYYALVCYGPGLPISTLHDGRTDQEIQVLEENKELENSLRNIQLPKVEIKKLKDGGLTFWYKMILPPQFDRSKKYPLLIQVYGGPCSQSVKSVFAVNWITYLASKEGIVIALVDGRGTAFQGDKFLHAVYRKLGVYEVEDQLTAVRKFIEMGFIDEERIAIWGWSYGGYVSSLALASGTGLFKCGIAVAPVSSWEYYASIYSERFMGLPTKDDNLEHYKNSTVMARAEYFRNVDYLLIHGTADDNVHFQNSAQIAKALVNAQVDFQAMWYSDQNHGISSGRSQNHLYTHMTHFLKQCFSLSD
Description: as §1

[3] = biological target: T2, murine FAP expressed on cells; assay: saturation binding of 99mTc-labelled VHH on murine FAP-expressing HEK-293 cells (mean ± SD, n = 3)
Description: (§2) Next, we describe the in vitro and in vivo human and murine FAP binding potential of different VHHs after radiolabelling with the diagnostic radioisotope ^99mTc. […] His₆-tagged human/murine FAP-targeting VHHs were radiolabelled with the diagnostic radioisotope ^99mTc, according to the radiochemical procedure described in Example 3.
as §1

[4] = biological target: T1, human FAP expressed on cells; assay: saturation binding of 131I-SGMIB-labelled VHH on human FAP-expressing GM05389 cells; GM05389 cells
Description: (§3) In a first part, the in vitro behaviour was assessed by means of investigating their cellular binding and retention overtime. The binding potential of the resulting radioconjugates was assessed to confirm that this was not affected by the introduction of ¹³¹I-SGMIB into the amino acid sequence of the VHH. To this, human FAP-expressing GM05389 (His₆-tagged and untagged VHH B1) and human FAP-transfected HEK-293 cells (His₆-tagged and untagged VHH B1; His₆-tagged VHH B2) were incubated with serial dilutions with concentrations ranging from 0 to 33 nM of the different ¹³¹I-labelled VHHs. A 100-fold excess of the corresponding unlabeled VHH was added in parallel to saturate the human FAP receptors expressed on cancer cells, to assess non-specific binding.

[5] = biological target: T1, human FAP expressed on cells; assay: saturation binding of 131I-SGMIB-labelled VHH on human FAP-transfected HEK-293 cells; HEK-293 cells
Description: as §3

[6] = biological target: T1, human FAP expressed on cells; assay: saturation binding of 99mTc-labelled VHH on human FAP-expressing GM05389 cells (mean ± SD, n = 3)
Description: as §2, §1

[7] = biological target: T1, human FAP expressed on cells; assay: saturation binding of 99mTc-labelled VHH on human FAP-expressing HEK-293 cells (mean ± SD, n = 3)
Description: as §2, §1

[8] = biological target: T3, human DPP IV recombinant protein (human, UniProt P27487 29-766); assay: ELISA, coated human DPP IV, HA-His6-tagged VHH extract, anti-HA detection
T3 construct: extracellular domain; Bought protein; also called Dipeptidyl amino-peptidase IV
T3 sequence (P27487 29-766): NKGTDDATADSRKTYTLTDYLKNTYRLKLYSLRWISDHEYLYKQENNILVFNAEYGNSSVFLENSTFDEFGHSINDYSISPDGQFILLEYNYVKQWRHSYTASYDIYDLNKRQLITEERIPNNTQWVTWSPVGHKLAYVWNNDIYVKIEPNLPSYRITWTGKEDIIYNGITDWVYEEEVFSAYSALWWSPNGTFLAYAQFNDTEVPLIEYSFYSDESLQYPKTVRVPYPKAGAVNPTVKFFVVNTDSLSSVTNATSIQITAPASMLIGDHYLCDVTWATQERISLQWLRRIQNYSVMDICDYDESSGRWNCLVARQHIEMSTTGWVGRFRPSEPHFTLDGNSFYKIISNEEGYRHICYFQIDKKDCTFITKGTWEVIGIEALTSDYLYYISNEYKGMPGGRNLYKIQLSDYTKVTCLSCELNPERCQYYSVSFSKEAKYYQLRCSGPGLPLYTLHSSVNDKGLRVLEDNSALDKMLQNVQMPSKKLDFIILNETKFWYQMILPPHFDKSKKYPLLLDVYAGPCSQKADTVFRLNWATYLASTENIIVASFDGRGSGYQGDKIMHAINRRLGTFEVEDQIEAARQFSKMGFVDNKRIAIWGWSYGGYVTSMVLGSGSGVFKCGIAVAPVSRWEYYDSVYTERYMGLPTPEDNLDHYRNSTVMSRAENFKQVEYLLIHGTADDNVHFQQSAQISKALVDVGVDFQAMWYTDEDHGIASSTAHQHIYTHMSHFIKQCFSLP
Description: (§4) The day before measurement, 0.1 μg recombinant protein at a concentration of 1 μg/mL in 100 mM NaHCO₃, pH 8.2 was coated in a 96-well ELISA plate (Nunc MaxiSorp). Per VHH clone also a blank coated well was foreseen (only buffer). The wells were overcoated with protein-free T20 (PBS) blocking buffer (Pierce). After washing with PBS, pH7.4, 0.05% Tween, VHH-containing bacterial freeze-thaw extract was added to every well. Binding of HA-His₆-tagged VHHs was detected by using mouse anti-HA.11 epitope tag (clone 16B12, Biolegend) as the primary Ab and goat anti-mouse IgG (whole molecule) alkaline phosphatase conjugate (Sigma-Aldrich) as the secondary Ab, with thorough washing with PBS, pH 7.4, 0.05% Tween in between. Signals were developed using phosphatase substrate (Sigma-Aldrich) in AP blot buffer (100 mM NaCl, 50 mM MgCl₂, 100 mM Tris, pH 9.5). The absorbance was determined at 405 nm using an absorbance microplate reader (Molecular Devices). Per clone the ratio was determined between the absorbance in the antigen-coated well versus the well without antigen.

[9] = biological target: T4, human FAP recombinant protein (human, UniProt Q12884 26-760); assay: ELISA, coated human FAP recombinant protein, HA-His6-tagged VHH extract, anti-HA detection
T4 construct: The protein was biotinylated with sulfo-NHS-SS-biotin for bio-layer interferometry; also called extracellular domain of human FAP with N-terminal His6-tag
T4 sequence: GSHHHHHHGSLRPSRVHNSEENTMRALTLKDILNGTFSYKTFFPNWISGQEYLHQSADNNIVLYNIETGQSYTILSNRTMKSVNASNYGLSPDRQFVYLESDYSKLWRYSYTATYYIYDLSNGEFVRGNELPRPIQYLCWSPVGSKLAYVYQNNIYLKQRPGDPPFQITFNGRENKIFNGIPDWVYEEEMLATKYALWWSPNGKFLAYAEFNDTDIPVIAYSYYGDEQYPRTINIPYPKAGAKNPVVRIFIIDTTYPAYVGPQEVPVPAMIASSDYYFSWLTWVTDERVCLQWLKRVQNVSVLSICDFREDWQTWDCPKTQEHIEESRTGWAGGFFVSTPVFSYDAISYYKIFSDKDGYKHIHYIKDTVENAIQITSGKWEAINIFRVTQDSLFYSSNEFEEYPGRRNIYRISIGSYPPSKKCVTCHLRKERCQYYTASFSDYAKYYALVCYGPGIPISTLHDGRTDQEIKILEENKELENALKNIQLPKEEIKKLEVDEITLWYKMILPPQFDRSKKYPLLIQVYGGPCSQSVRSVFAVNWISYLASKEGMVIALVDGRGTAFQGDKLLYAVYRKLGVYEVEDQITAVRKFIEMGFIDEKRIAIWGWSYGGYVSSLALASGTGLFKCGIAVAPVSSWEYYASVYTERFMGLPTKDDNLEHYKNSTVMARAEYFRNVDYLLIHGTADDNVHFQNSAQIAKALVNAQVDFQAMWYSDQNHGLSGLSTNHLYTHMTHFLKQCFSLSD
Description: as §4

[10] = biological target: T3, human DPP IV recombinant protein; assay: ELISA on coated recombinant protein, VHH-containing bacterial extract, anti-HA detection, signal-to-background ratio
Description: as §4

binding result [1]: no binding (tested: 0 to 300 nM)
binding result [2]: no binding (tested: 0 to 300 nM)
B1: 99mTc-labeled non-targeting control VHH R3B23 (VHH)
VHH: QVQLQESGGGSVQAGGSLRLSCAASGDTGYMGWFRQAPGKEREGVAVINSDSGVGSTYYADSVKGRFTISRDNAKNTVYLQMNSLKPEDTAIYYCAAGHFSDYVSPWTWREIYRYNVWGQGTQVTVSS
modifications: 99mTc label (labelling is described at the His6-tag)
notes: also called 99mTc-R3B23

binding result [1]: no binding (tested: 0 to 300 nM)
EC50 [3]: 7.6 nM
B2: 99mTc-labeled His6-tagged VHH B4 (VHH)
VHH: DVQLVESGGGLVQVGGSLRLSCVASGFTFSSYYMSWVRQAPGKGLEWVASIYADGDMTYYADSVRGRFTISRDNAKNTLYLQMNSLKSEDTAVYYCAKDPLPPYHVNQGTQVTVSS
modifications: [99mTc(H2O)3(CO)3] complexed at the His6-tag
notes: also called 99mTc-B4

EC50 [4]: 0.6 nM
EC50 [5]: 1.4 nM
B3: 131I-labeled His6-tagged VHH B1 (VHH)
VHH: DVQLVESGGGLVQPGGSLRLSCVASGRLSSSNSMAWYRQVPGKRRELVAGITGGGETNYADFVGGRFTISRDNAKNGLYLQLNGLKPEDTAAYYCNFWPPLINYWGQGTQVTVSS
modifications: [131I]SGMIB conjugated to lysine side-chain amines
notes: also called 131I-B1; His6-tagged B1

EC50 [4]: 2.7 nM
EC50 [5]: 2.8 nM
B4: 131I-labeled untagged VHH B1 (VHH)
VHH: DVQLVESGGGLVQPGGSLRLSCVASGRLSSSNSMAWYRQVPGKRRELVAGITGGGETNYADFVGGRFTISRDNAKNGLYLQLNGLKPEDTAAYYCNFWPPLINYWGQGTQVTVSS
modifications: [131I]SGMIB conjugated to lysine side-chain amines
notes: also called untagged B1; [131I]SGMIB-VHH

binding result [2]: no binding (tested: 0 to 300 nM)
EC50 [6]: 2.7 nM
EC50 [7]: 2.4 nM
B5: 99mTc-labeled His6-tagged VHH B3 (VHH)
VHH: DVQLVESGGGLVQAGGSLRLSCAVSGRLFSTNAMGWYRQAPGKQRELVAGITGGDRSNYADSVKGRFTISRDNGKNTLYLQMNSLKPEDTAVYYCNFYPPIVGDYWGQGTQVTVSS
modifications: [99mTc(H2O)3(CO)3] complexed at the His6-tag
notes: also called 99mTc-B3

signal-to-background ratio [8]: ~1
signal-to-background ratio [9]: > 25
binding result [10]: no binding
B6: HA-His6-tagged VHH B2 (VHH)
VHH: QVQLQESGGGLVQAGGSLRLSCAVSGSISSANSMGWYRQAPGKQRDVVAGLTTGGRSHYADSVKGRFTISRDNAKNTVYLQMNSLKAEDTAVYYCNLWPPVQGYWGQGTQVTVSS
notes: also called B2 with HA-His6-tag

EC50 [5]: 3.8 nM
B7: 131I-labeled His6-tagged VHH B2 (VHH)
VHH: DVQLVESGGGLVQAGGSLRLSCAVSGSISSANSMGWYRQAPGKQRDVVAGLTTGGRSHYADSVKGRFTISRDNAKNTVYLQMNSLKAEDTAVYYCNLWPPVQGYWGQGTQVTVSS
modifications: [131I]SGMIB conjugated to lysine side-chain amines
notes: also called 131I-B2; His6-tagged B2

Reference: patent US20230381350A1 (PRECIRIX N V, published 2023)
